Source: the DeepSol protein solubility set

Assay: soluble on expression in E. coli; label from the status in PepcDB or PDB records

| Sequence | soluble on expression in E. coli |
| --- | --- |
| AKGEVWEAKPVGAAALPQWIRGRLDKIGLGIEADALALFAERVEGNLLAARQEIDKLGLLYPKGHTVNIDEAQTAVANVARFDAFQLAGAWMKGDVLRVCRLLDGLREEGEEPVLLLWAVAEDVRTLIRLAAALKQGQSIQSVRNSLRLWGDKQTLAPLAVKRISVVRLLDALKTCAQIDRIIKGAEDGDAWTVFKRLVVSLAE | soluble |
| MAHHHHHHMAAYVGSVPPATLTTLAQREVELSLLQFLRQYHPKVDELWRTHPDAEPMETAEEMCMDASDDCKSDHLPRLHRELHDSYVQGRFLFLGESTQGLYSSQPWLAFWALQAADMLDITEKLYEHVSPDALGNFILGCLQEVKKSGTSNDDDMRNNPMDMDEQQESVLLRNPVSIFDDDNDDGKRLVGFAGGQLAQIPHLAASYAALCSLCILPRTTYLRALPRAAIKRWLLSLRCKDGSFCMHTGGEADIRASYCVAVMTVLLQLNDVPAYTDGRDDTVLTEQTAAFVASCQTHEGGFACGLNASEAHGAYTQCGLAALILMRYPHLCKYAALRRWLSARQLKFEGGFNGRTNKLVDSCYSYWVGASHMLLRVGESYMRLLGQTETPRCLTAREALLLDHAQLIDTTSMCPMDDDAWRHAEEIHRQRTAHVEAYLHAPSHSTWKQQTATQSFLDEDVGDFYFNQRRLLLYVLSCCQDKEMGGLMDKPGCLNDAYHTCYSLSGMSTAQNLQYLPRSCTNETLMYATALRRGYIPNERDDYEIVLAVHNSNRGVGCGCYRSQERLSPLNPIFNICQSRVLAALRTWGVKSFIC | soluble |
| MGSDKIHHHHHHMTHPSVDQENLPQTASLPENIIEAAITWSIRLDYNDPTPETRQSFDQWLHADPLHRLAWQRVDSLNNLRNDCRSLPSRLAFDTLQEVDSRRQSRKLSRRNAMKLLSLAGITIATGWTVREHTPWQRLLADASTVTGEQRVLHLTDGTVVVLNTDSAVSFDLTEAQRLIVLQRGEMHITTGPDSEVSARIGRKRPFRVRTPFGELQALGTRFVVRLDEQHARVSVQEGAVELHPSAGGSSAIVQAGESRRLTGSSILPEADRYFEEDGWVSGVIAGKNIRLADLVAELSRYRPGYIVCDERVADLPISGIFHVKDTDKALQFLAQTQPVSVMYRTRFWVIVGPKSLYR | not soluble |
| MGSDKIHHHHHHMHLTKTWLAQLPLTDIQQVQPVSGGDINAAFQIITRHHQYFLKVQPHNDVTFFDHEVAGLRLLGAVTKTPRVIASGTIATDGYLLLDWLATGTGSQSALGAAVAKVHHQHHAQFGLDHDFTAGKLPKINHWQTDWATFYTQQRLDVLVNLAKEHHLWSETREMHYHRLRQQLLQDSHMHTVKPSLLHGDLWSGNYLFDTTGTPVLIDPDVFYGDREMDLAMTTIFGGFDTDFYQAYQAAYPVAPGMQDRLPSYQLYYLLAHLNLFGETYGPAVDRILMQY | not soluble |
| MSLIIRTDTSPHRAAAKLSPNELTLTGARLVLPDEVYDGTVHIIDGYIDDIAAGRSTVPGAIDLEGGYVTPGLIDLHTDNSEKHALPRAGVVWNHLSAVMAHDALVIAAGITTVFDSLCIGSTTRDHTRQADRARILPVLIDGIREARAHGLLRADHFLHLRCEVTDEEVMSVFTPLVGDPLVKLVSVMDHAPGHRQSPQLDRFREMQIKQYGWSAEDADRRIEAWIDASRTIGPQNRSRIIALARARQLPLASHDDQTPEHVREANDAGVLISEFPTTRAAAEIARSLGICILMGAPNIVRGSSHSGNISARELATTGHLDILASDYVPASLLHGAFQLTRDPIGMSLTKAISTVSSVPASVTGFCDRGMIGIGGRADLCHIVEIADIPVVRGVWRQGRQVFEGHHHHHH | not soluble |
| MGSDKIHHHHHHMKIKKGDTEAEILTKGAYLYSFKIGNRDMILRGDLERPTRGGMAILIPFANRVKNAEYVFEGVKYTLPQNREGNAIHGLVMDKEFNVIGKSEDSISLQYILEHEGYPSKLDCVITYKVFKYGLRIKIVVRNVGNKRAPLTVGAHPYFITADDWRIVVEKEESIKKCISFNKIPTGELVKTKLEHTDYDDCFLISGGIQLHSSYSKVRITRRNMPFVQIYTGVRGSIAIEPMSGAPDAYHNGLGLKILEPNESSYFAFAFRFH | not soluble |
| MGSDKIHHHHHHMLNMNFDEQVFINTQEQPWVASPKAGVWRKPLAREDAERGHATSLVKFDPGASFTEHDHPLGEEILVLSGTFSDHTGDYHAGSYFRNPEGFRHAPFSKDGCILLVKLHQFQSGDNEHVVIDTANKSWSPGMGNLMVMPLHSFEGESTALVKWPKDERFQPHKHFGGEEIFVISGEFIDEHGRYPEGSWIRSPHLSEHFPYVEQETIILVKVGHL | not soluble |
| MQLFDLPLDQLQTYKPEKTAPKDFSEFWKLSLEELAKVQAEPDLQPVDYPADGVKVYRLTYKSFGNARITGWYAVPDKEGPHPAIVKYHGYNASYDGEIHEMVNWALHGYATFGMLVRGQQSSEDTSISPHGHALGWMTKGILDKDTYYYRGVYLDAVRALEVISSFDEVDETRIGVTGGSQGGGLTIAAAALSDIPKAAVADYPYLSNFERAIDVALEEPYLEINSFFRRNGSPETEVQAMKTLSYFDIMNLAYRVKVPVLMSIGLIDKVTPPSTVFAAYNHLETKKELKVYRYFGHEYIPAFQTEKLAFFKQHLKG | soluble |
| MSLNGITKYVEKVKGLLFSSVQSQKRIEFSNNDEKVMLSNVPLIQQLPELDRGCEVTSLAMMLQYAGVSVDKMKLANEIKKVNFMEDGVRGNPNEGFVGNIYTFSESGYGVYHGPLFQLAKKYLPNKAVDLTGKSIEEIYKSVKAGHPVVMITNATYAPLDEDEFTTWETNSGDVSITYNEHCVVLVGYDKESVYIRDPLDDSLDVKVPREKFEQAWVQMGSQAISYVNKSKEGHHHHHH | soluble |
| MQDNSTKYLLYIQTATSNHLETNCVFLHCDYILKVPINKLVSYYAKLHLSSQSVLIETAKNILNINKLVPIYINPKTILFPLKHKRAPIQIYINAHYIVGMTAIENSTLIHFQEGIQLEVDEPFSLVSKKCHESLALKHFIENTISNLEHHHHHH | not soluble |
| GMGLALCGAAAQAQEKPNFLIIQCDHLTQRVVGAYGQTQGCTLPIDEVASRGVIFSNAYVGCPLSQPSRAALWSGMMPHQTNVRSNSSEPVNTRLPENVPTLGSLFSESGYEAVHFGKTHDMGSLRGFKHKEPVAKPFTDPEFPVNNDSFLDVGTCEDAVAYLSNPPKEPFICIADFQNPHNICGFIGENAGVHTDRPISGPLPELPDNFDVEDWSNIPTPVQYICCSHRRMTQAAHWNEENYRHYIAAFQHYTKMVSKQVDSVLKALYSTPAGRNTIVVIMADHGDGMASHRMVTKHISFYDEMTNVPFIFAGPGIKQQKKPVDHLLTQPTLDLLPTLCDLAGIAVPAEKAGISLAPTLRGEKQKKSHPYVVSEWHSEYEYVTTPGRMVRGPRYKYTHYLEGNGEELYDMKKDPGERKNLAKDPKYSKILAEHRALLDDYITRSKDDYRSLKVDADPRCRNHTPGYPSHEGPGAREILKRK | soluble |
| MNLKREQEFVSQYHFDARNFEWENENGAPETKVDVNFQLLQHDQENQVTSLIVILSFMIVFDKFVISGTISQVNHIDGRIVNEPSELNQEEVETLARPCLNMLNRLTYEVTEIALDLPGINLEF | soluble |
| TQLHATRQAIVEAGQAIKMDKNGVQKLPVLNIYNEQQKWQKHQLMVENLPLNQVLQELDRNYKGKIIFNDAALQHVRVNAVLPLDQTTESLKLLATVFPDLKIKQIMPFVVMVSLK | not soluble |
| SANTSFLLRKKIFAKLMRITTPSHDHYGSSTLLVRLTNDVYLMEVIAFDFL | not soluble |
| MAHHHHHHMSHYLLVTFTFNCPEIRILGPIKEQTIEKLNDVIPNATTTSRSNRTALPKFEYLPNPNHWYIKLDRQFCDEDGKSHLMVLLLDALSEEGSWRLVSSFVTKEPSGTGSKEGTETHTLFLNKLLAEDS | soluble |
| MTQTNRVIIFDTTLRDGEQSPGAAMTKEEKIRVARQLEKLGVDIIEAGFAAASPGDFEAVNAIAKTITKSTVCSLSRAIERDIRQAGEAVAPAPKKRIHTFIATSPIHMEYKLKMKPKQVIEAAVKAVKIAREYTDDVEFSCEDALRSEIDFLAEICGAVIEAGATTINIPDTVGYSIPYKTEEFFRELIAKTPNGGKVVWSAHCHNDLGLAVANSLAALKGGARQVECTVNGLGERAGNASVEEIVMALKVRHDLFGLETGIDTTQIVPSSKLVSTITGYPVQPNKAIVGANAFSHESGIHQDGVLKHRETYEIMSAESVGWATNRLSLGKLSGRNAFKTKLADLGIELESEEALNAAFARFKELADKKREIFDEDLHALVSDEMGSMNAESYKFISQKISTETGEEPRADIVFSIKGEEKRASATGSGPVDAIFKAIESVAQSGAALQIYSVNAVTQGTESQGETSVRLARGNRVVNGQGADTDVLVATAKAYLSALSKLEFSAAKPKAQGSGTI | not soluble |
| MKAERILGALYGQALGDAMGMPSELWPRTRVKAHFGWIDRFLPGPKENNAACYFNRAEFTDDTAMALCLADALLECEGNIDPEIIGRNILAWAERFDAFNKNVLGPTSKIALNAIRDGKPIAALENNGVTNGAAMRVSPLGCLLPPTNLTAFIAEVALASSPTHKSDLAVAGAVVVAWAVSRAVNGDTWQSIADSLPAVAHQAQTARITTFSASLSARLELALNIVRHADGVESASEQLYQIIGAGTSTIESVPCAIAMVELANTDPNRCAVLCANLGGDTDTIGAMATAICGALHGVSAINPQLKQTLDEVNQLDFARYAVALASYRQRREALLEHHHHHH | soluble |
| MGSDKIHHHHHHMAVIYYDKDADLNLIKDKKIAIIGYGSQGHAHALNLKDSGLNVVVGLREGSKSWKKAEEQGLTVKTIEEAAKEADIIMILIPDEHQPEIYKKYIEKHLTEGKMLMFAHGFNIHYHQIIPPKNVDVTMIAPKSPGHIVRREYVEGRGVPALVAVYQDYTGKAKDIALAYAKGIGVTRAGVIETTFKEETETDLFGEQAVLCGGVTALIKAGFETLVDAGYQPEIAYFECLNELKLIVDLIYEGGLSFMRYSVSNTAEYGDYISQEKIVTKEVRENMKQMLKDIQTGKFAKDWILENQAGRPYFYTMRKKESEHLIEKVGKELRKMMPWLKERNVDEE | not soluble |
| HFASTRSFLDTVKLDHAIWKNNIYRLLQSGSFGETVNSHSECRLGQWYYRGDGKAYSQLRSYAQLEAPHKGVHDSGRDAMNHAKSGNMAGMVTSINSMEDTSEQVVIHIDRLMDEIIAN | not soluble |
| MKETCDLLAFGAHPDDVEIGMGGTIAKYVRRGYRIVICDLTQAELSSNGTVDERQREAAEAARRLGVSERFNLGLPDRGLYVEEEAIRQIAAVIRRYRPRLVFAPYWEDRHPDHGRCARLVEEAVFSAGIRRYGAGELGDAHRVRAVYYYMINAFCRPHFLIDISETINDKLDSLRAYESQFQKRPGSVDTPLTNGYIEMIESRERWFGQQIGAAYAEGFLTKTPIHLSNLFEEER | soluble |
| MAYPVSPIAGRRSNWRSFAASLNLEDGPASSDSTSSPSEQTSDGGEVYGDPSENLNSRKLKSDELKSLLADSERSKLLKKLSEANQYNRFLKRQLQMKDNDVVKFKSELAVMELELQALVALAEEIANFDVPSGSRKINGKYIQSHLLTRLEAVHDKVMEQIKDVDSLKHQEISVFWVGIAENVQIMGSFDGWSQGEAMSMEYSGYQARFSATLNLRPGRYEIKFLVDGEWRLSLEYPIDGEGSMQNNILVVN | not soluble |
| MGSDKIHHHHHHMMNNIGLILFDIDGVIRDVTNSYRLAIQETVNFFSGWRPSIEDIDSIKSEGCWNNDWDLSLEMINRHVQKNNLSFSAPSRKILIECFENFYFGGDPNHDSSEWSGFIKDETLLVKKTFFEELTQRRIGWGFVSGAELPSAKFVLEQRLGLASAPLIAMGEAPEKPDPTGFISLSSKLSKKPLGFSNPPIAYIGDTVADVKTVINARIKIPDQKFISLAIAPPHLHVDSSREKRLRYEAELKKAGADLIIKSMDNLKNETLNLFINQ | not soluble |
